Data taken from US20160264681A1 (ACCELERON PHARMA, published 2016).
Like-named read-outs stand apart in the source and are kept apart here.

T1: Activin A (UniProt P08476 311-426)
T1 sequence (looked up): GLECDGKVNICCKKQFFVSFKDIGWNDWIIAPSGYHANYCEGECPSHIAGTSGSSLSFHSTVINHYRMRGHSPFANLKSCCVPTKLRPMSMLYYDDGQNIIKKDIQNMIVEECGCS

T2: GDF11 (UniProt O95390 299-407)
T2 sequence (looked up): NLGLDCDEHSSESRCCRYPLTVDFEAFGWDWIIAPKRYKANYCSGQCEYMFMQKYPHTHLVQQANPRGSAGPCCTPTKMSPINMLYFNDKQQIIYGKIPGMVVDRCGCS

B1: ActRIIb-hFc (R64, 20-128) (Fc fusion)
chain: GRGEAETRECIYYNANWELERTNQSGLERCEGEQDKRLHCYASWRNSSGTIELVKKGCWLDDFNCYDRQECVATEENPQVYFCCCEGNFCNERFTHLPEAGGPEVTYEPGGGTHTCPPCPAPELLGGPSVFLFPPKPKDTLMISRTPEVTCVVVDVSHEDPEVKFNWYVDGVEVHNAKTKPREEQYNSTYRVVSVLTVLHQDWLNGKEYKCKVSNKALPVPIEKTISKAKGQPREPQVYTLPPSREEMTKNQVSLTCLVKGFYPSDIAVEWESNGQPENNYKTTPPVLDSDGSFFLYSKLTVDKSRWQQGNVFSCSVMHEALHNHYTQKSLSLSPGK
B2: ActRIIb-hFc (R64, 20-131) (Fc fusion)
chain: GRGEAETRECIYYNANWELERTNQSGLERCEGEQDKRLHCYASWRNSSGTIELVKKGCWLDDFNCYDRQECVATEENPQVYFCCCEGNFCNERFTHLPEAGGPEVTYEPPPTGGGTHTCPPCPAPELLGGPSVFLFPPKPKDTLMISRTPEVTCVVVDVSHEDPEVKFNWYVDGVEVHNAKTKPREEQYNSTYRVVSVLTVLHQDWLNGKEYKCKVSNKALPVPIEKTISKAKGQPREPQVYTLPPSREEMTKNQVSLTCLVKGFYPSDIAVEWESNGQPENNYKTTPPVLDSDGSFFLYSKLTVDKSRWQQGNVFSCSVMHEALHNHYTQKSLSLSPGK
B3: ActRIIb-hFc (R64, 21-131) (Fc fusion)
chain: RGEAETRECIYYNANWELERTNQSGLERCEGEQDKRLHCYASWRNSSGTIELVKKGCWLDDFNCYDRQECVATEENPQVYFCCCEGNFCNERFTHLPEAGGPEVTYEPPPTGGGTHTCPPCPAPELLGGPSVFLFPPKPKDTLMISRTPEVTCVVVDVSHEDPEVKFNWYVDGVEVHNAKTKPREEQYNSTYRVVSVLTVLHQDWLNGKEYKCKVSNKALPVPIEKTISKAKGQPREPQVYTLPPSREEMTKNQVSLTCLVKGFYPSDIAVEWESNGQPENNYKTTPPVLDSDGSFFLYSKLTVDKSRWQQGNVFSCSVMHEALHNHYTQKSLSLSPGK
B4: ActRIIb-hFc (R64, 22-131) (Fc fusion)
chain: GEAETRECIYYNANWELERTNQSGLERCEGEQDKRLHCYASWRNSSGTIELVKKGCWLDDFNCYDRQECVATEENPQVYFCCCEGNFCNERFTHLPEAGGPEVTYEPPPTGGGTHTCPPCPAPELLGGPSVFLFPPKPKDTLMISRTPEVTCVVVDVSHEDPEVKFNWYVDGVEVHNAKTKPREEQYNSTYRVVSVLTVLHQDWLNGKEYKCKVSNKALPVPIEKTISKAKGQPREPQVYTLPPSREEMTKNQVSLTCLVKGFYPSDIAVEWESNGQPENNYKTTPPVLDSDGSFFLYSKLTVDKSRWQQGNVFSCSVMHEALHNHYTQKSLSLSPGK
B5: ActRIIb-hFc (R64, 23-131) (Fc fusion)
chain: EAETRECIYYNANWELERTNQSGLERCEGEQDKRLHCYASWRNSSGTIELVKKGCWLDDFNCYDRQECVATEENPQVYFCCCEGNFCNERFTHLPEAGGPEVTYEPPPTGGGTHTCPPCPAPELLGGPSVFLFPPKPKDTLMISRTPEVTCVVVDVSHEDPEVKFNWYVDGVEVHNAKTKPREEQYNSTYRVVSVLTVLHQDWLNGKEYKCKVSNKALPVPIEKTISKAKGQPREPQVYTLPPSREEMTKNQVSLTCLVKGFYPSDIAVEWESNGQPENNYKTTPPVLDSDGSFFLYSKLTVDKSRWQQGNVFSCSVMHEALHNHYTQKSLSLSPGK
B6: ActRIIb-hFc (R64, 24-131) (Fc fusion)
chain: AETRECIYYNANWELERTNQSGLERCEGEQDKRLHCYASWRNSSGTIELVKKGCWLDDFNCYDRQECVATEENPQVYFCCCEGNFCNERFTHLPEAGGPEVTYEPPPTGGGTHTCPPCPAPELLGGPSVFLFPPKPKDTLMISRTPEVTCVVVDVSHEDPEVKFNWYVDGVEVHNAKTKPREEQYNSTYRVVSVLTVLHQDWLNGKEYKCKVSNKALPVPIEKTISKAKGQPREPQVYTLPPSREEMTKNQVSLTCLVKGFYPSDIAVEWESNGQPENNYKTTPPVLDSDGSFFLYSKLTVDKSRWQQGNVFSCSVMHEALHNHYTQKSLSLSPGK
B7: ActRIIB(20-134)-hFc (Fc fusion)
chain: GRGEAETRECIYYNANWELERTNQSGLERCEGEQDKRLHCYASWRNSSGTIELVKKGCWLDDFNCYDRQECVATEENPQVYFCCCEGNFCNERFTHLPEAGGPEVTYEPPPTAPTGGGTHTCPPCPAPELLGGPSVFLFPPKPKDTLMISRTPEVTCVVVDVSHEDPEVKFNWYVDGVEVHNAKTKPREEQYNSTYRVVSVLTVLHQDWLNGKEYKCKVSNKALPVPIEKTISKAKGQPREPQVYTLPPSREEMTKNQVSLTCLVKGFYPSDIAVEWESNGQPENNYKTTPPVLDSDGSFFLYSKLTVDKSRWQQGNVFSCSVMHEALHNHYTQKSLSLSPGK
B8: ActRIIb-hFc (R64, 20-132) (Fc fusion)
chain: GRGEAETRECIYYNANWELERTNQSGLERCEGEQDKRLHCYASWRNSSGTIELVKKGCWLDDFNCYDRQECVATEENPQVYFCCCEGNFCNERFTHLPEAGGPEVTYEPPPTAGGGTHTCPPCPAPELLGGPSVFLFPPKPKDTLMISRTPEVTCVVVDVSHEDPEVKFNWYVDGVEVHNAKTKPREEQYNSTYRVVSVLTVLHQDWLNGKEYKCKVSNKALPVPIEKTISKAKGQPREPQVYTLPPSREEMTKNQVSLTCLVKGFYPSDIAVEWESNGQPENNYKTTPPVLDSDGSFFLYSKLTVDKSRWQQGNVFSCSVMHEALHNHYTQKSLSLSPGK

Columns and labels:
Assay in all cases: cell-based or functional assay
[1] = biological target: T1, Activin A
[2] = biological target: T2, GDF11
[3] = biological target: T1, Activin A; remark: listed apart in the source
[4] = biological target: T2, GDF11; remark: listed apart in the source

Binder | IC50 (ng/mL), reporter gene assay, conditioned media [1] | IC50 (ng/mL), reporter gene assay, conditioned media [2] | IC50 (ng/mL), reporter gene assay, conditioned media [3] | IC50 (ng/mL), reporter gene assay, conditioned media [4]
B1 | 158 ng/mL | 130 ng/mL |  | 
B2 | 44 ng/mL | 120 ng/mL | 201 ng/mL | 183 ng/mL
B3 |  |  | 325 ng/mL | 121 ng/mL
B4 |  |  | 100 ng/mL | 71 ng/mL
B5 |  |  | 43 ng/mL | 60 ng/mL
B6 |  |  | 105 ng/mL | 69 ng/mL
B7 | 2 ng/mL | 45 ng/mL |  | 
B8 | 32 ng/mL | 87 ng/mL |  | 
